T1: HCoV-OC43 spike antigens (bead panel) (HCoV-OC43, UniProt P36334 14-1297)
T1 sequence: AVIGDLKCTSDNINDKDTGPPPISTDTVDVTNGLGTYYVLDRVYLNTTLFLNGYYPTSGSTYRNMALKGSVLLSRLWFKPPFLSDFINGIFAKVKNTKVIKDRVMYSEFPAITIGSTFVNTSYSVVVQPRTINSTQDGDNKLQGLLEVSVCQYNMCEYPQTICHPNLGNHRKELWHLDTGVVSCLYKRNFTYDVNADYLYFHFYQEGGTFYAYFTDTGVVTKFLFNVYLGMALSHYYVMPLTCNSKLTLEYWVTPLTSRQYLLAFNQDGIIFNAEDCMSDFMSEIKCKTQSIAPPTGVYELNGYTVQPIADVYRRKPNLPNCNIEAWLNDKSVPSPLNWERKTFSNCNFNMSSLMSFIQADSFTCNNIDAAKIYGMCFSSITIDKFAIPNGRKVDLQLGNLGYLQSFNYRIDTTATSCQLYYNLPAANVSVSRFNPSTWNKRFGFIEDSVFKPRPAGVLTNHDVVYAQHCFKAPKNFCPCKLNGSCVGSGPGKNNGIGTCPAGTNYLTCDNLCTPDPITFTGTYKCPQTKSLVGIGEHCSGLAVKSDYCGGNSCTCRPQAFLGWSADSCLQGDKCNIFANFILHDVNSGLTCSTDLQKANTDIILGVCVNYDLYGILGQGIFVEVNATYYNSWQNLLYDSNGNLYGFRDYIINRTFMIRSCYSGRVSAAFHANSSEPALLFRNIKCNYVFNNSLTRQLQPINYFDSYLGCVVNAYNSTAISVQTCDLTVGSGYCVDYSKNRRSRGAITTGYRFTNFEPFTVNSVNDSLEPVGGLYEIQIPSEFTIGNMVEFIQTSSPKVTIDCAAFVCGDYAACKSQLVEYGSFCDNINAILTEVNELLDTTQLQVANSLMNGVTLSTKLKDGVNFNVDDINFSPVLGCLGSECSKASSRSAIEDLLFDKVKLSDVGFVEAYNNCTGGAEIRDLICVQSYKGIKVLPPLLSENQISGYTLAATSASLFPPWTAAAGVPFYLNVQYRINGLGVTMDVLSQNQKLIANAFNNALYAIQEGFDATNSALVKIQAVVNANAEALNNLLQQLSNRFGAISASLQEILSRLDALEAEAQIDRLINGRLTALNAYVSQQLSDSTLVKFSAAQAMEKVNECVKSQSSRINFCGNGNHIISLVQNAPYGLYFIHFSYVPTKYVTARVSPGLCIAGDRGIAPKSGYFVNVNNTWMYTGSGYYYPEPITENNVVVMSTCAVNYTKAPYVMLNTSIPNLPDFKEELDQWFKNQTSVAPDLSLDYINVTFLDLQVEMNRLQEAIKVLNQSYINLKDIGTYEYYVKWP

T2: HCoV-HKU1 spike antigens (bead panel) (HCoV-HKU1, UniProt Q5MQD0 13-1300)
T2 sequence: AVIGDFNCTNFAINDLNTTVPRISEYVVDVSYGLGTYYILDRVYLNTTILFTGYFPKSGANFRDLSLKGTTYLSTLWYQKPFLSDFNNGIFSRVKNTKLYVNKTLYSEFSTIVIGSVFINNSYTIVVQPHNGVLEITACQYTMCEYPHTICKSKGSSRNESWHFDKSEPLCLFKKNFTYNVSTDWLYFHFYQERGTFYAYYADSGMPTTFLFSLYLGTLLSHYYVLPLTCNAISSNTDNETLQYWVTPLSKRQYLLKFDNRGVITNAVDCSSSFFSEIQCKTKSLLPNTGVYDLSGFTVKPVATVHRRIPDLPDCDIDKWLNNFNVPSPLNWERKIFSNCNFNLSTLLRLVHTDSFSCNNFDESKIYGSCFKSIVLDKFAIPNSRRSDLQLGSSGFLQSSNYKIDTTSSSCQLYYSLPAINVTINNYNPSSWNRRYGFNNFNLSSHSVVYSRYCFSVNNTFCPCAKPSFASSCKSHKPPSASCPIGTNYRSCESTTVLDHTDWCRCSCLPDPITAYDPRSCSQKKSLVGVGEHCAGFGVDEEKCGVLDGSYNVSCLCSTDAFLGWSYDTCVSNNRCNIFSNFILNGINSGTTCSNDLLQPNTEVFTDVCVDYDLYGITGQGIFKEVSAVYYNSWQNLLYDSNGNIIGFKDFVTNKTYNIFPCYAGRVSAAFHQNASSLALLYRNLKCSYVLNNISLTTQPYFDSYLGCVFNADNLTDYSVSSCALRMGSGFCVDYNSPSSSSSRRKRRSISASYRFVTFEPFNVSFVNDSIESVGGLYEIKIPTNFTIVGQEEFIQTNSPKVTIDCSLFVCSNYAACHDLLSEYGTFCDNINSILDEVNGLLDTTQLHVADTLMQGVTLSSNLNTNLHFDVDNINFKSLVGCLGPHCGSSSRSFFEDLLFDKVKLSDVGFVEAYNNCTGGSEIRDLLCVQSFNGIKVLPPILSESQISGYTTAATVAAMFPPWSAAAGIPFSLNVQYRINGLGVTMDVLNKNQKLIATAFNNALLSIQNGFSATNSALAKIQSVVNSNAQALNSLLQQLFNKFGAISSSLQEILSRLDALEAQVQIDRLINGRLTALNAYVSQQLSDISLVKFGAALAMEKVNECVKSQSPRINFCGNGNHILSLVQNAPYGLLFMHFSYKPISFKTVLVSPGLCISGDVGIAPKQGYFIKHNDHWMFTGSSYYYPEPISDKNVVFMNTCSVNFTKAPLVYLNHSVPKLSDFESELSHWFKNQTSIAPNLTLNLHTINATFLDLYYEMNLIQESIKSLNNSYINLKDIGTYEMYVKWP

T3: MERS-CoV spike antigens (bead panel) (MERS-CoV, UniProt K9N5Q8 18-1296)
T3 sequence: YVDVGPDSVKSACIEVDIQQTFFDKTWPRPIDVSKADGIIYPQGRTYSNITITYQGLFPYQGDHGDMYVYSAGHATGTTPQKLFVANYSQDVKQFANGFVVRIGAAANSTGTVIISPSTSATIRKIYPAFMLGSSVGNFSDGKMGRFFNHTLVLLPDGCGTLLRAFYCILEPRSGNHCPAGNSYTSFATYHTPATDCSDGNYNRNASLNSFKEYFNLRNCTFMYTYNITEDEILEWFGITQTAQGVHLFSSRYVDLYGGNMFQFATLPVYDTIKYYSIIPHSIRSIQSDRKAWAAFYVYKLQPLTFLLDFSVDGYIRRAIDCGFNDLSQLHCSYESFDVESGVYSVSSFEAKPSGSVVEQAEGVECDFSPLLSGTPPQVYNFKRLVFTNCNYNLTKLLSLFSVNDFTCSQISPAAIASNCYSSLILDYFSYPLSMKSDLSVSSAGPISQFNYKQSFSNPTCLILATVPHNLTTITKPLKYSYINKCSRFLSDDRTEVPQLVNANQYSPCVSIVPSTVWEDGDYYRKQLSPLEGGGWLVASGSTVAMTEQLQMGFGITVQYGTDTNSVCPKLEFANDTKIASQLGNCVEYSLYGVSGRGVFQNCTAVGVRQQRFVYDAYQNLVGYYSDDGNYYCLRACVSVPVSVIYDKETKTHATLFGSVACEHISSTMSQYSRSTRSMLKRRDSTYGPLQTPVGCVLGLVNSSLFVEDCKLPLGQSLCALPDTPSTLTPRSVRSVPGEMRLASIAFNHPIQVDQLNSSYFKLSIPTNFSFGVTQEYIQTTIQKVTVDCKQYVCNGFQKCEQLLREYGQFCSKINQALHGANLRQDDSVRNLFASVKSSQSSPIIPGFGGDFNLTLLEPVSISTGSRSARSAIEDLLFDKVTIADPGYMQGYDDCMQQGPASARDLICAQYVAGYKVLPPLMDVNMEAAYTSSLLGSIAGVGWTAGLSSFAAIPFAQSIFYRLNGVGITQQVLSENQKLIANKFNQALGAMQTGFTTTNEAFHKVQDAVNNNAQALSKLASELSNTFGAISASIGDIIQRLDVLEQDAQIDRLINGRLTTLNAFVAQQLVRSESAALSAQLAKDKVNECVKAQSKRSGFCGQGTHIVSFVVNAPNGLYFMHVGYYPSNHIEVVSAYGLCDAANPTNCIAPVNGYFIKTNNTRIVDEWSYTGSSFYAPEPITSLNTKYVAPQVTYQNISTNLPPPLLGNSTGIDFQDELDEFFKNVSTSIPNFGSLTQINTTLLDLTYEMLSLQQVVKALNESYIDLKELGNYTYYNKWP

T4: HCoV-229E spike antigens (bead panel) (HCoV-229E, UniProt P15423 16-1115)
T4 sequence: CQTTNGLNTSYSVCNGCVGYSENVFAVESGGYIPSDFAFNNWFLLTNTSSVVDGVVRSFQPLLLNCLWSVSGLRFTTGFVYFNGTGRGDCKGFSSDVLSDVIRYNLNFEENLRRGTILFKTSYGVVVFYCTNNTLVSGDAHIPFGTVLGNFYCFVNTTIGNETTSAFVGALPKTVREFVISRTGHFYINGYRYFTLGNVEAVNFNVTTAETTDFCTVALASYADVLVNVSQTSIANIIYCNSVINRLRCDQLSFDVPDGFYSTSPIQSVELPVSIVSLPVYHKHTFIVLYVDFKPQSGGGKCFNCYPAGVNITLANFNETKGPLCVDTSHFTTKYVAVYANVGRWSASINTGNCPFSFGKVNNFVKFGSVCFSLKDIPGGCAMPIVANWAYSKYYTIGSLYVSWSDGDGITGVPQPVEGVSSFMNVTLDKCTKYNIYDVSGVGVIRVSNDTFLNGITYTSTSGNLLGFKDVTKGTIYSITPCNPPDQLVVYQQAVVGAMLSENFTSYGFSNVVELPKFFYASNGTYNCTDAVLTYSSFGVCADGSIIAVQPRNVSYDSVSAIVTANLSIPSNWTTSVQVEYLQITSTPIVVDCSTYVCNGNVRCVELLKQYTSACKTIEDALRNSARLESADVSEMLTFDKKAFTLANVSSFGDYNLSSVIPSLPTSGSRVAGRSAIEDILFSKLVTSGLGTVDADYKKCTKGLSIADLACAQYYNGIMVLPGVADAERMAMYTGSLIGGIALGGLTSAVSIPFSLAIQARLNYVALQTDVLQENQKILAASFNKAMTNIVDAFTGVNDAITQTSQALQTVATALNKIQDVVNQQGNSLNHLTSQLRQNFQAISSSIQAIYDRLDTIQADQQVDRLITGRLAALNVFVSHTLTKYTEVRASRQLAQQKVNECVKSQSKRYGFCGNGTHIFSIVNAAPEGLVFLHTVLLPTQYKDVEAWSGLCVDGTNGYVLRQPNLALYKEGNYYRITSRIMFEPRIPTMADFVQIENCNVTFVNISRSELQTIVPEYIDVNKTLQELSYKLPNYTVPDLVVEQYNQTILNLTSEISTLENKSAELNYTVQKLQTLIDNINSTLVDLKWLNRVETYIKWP


Legend:
[1] = biological target: T1, HCoV-OC43 spike antigens (bead panel); assay: multiplex bead assay
[2] = biological target: T5, SARS-CoV-2 S on pseudovirions (Wuhan Hu-1 / IL1/2020, last 18 amino acids removed) (SARS-CoV-2, UniProt P0DTC2 14-1273); assay: cell-based or functional assay
[3] = biological target: T5, SARS-CoV-2 S on pseudovirions (Wuhan …); assay: cell-based or functional assay; remark: listed apart in the source
[4] = biological target: SARS-CoV-1 spike antigens (bead panel) (SARS-CoV-1, UniProt P59594 14-1195); assay: multiplex bead assay
[5] = biological target: T2, HCoV-HKU1 spike antigens (bead panel); assay: multiplex bead assay
[6] = biological target: T3, MERS-CoV spike antigens (bead panel); assay: multiplex bead assay
[7] = biological target: T4, HCoV-229E spike antigens (bead panel); assay: multiplex bead assay

Binder	binding result [1]	Mean IC80, pSV neutralization [2] [µg/ml]	IC50, pseudotyped neutralization assay [3] [ng/mL]	binding result [4]	Mean IC50, pSV neutralization [2] [µg/ml]	binding result [5]	binding result [6]	binding result [7]
COV_2173 (antibody, V domains shown, human IgG1) VH: QVQLQESGPGLVKPSETLSLTCSVSGDSISSSDYSWGWIRQPPGKGLEWIGTIYYIKNTYYNPSLRSRVTLSVDTSKNLFSLKLSSVTAADTAVYYCARERPPFDVVVVPAARPYNWFDPWGLGTLVIVSS VL: QSVLMQPPSVSGAPGQRVTISCTGSSSNIGAGYDVHWYQQLPGTAPKLLIYGNNNRPSGVPDRFSGSKSGTSASLAITGLQADDEADYYCQSYDSSLSGSKVFGGGTKLTVL	no binding	0.01	4					
COV_2165 (antibody, V domains shown, human IgG1) VH: EVQLVESGGGLVQPGGSLRLSCAASGFTFSSYSMNWVRQAPGKGLEWVSYISSSSSTIYYADYVKGRFTISRDNAKNSLYLQMNSLRAEDRAVYYCARVARRDVAPATIAAYFLDYWGQGTLVTVSS VL: EIVLTQSPATLSLSPGERATLSCRASQSLSSYLAWYQQKPGQAPRLLIYDASTRATGIPARFSGSGSGTDFTLTISSLEPEDFAVYYCQQRSTWPRGFTFGPGTKVDIK	no binding	0.04	10	no binding	0.02			
COV_3103 (antibody, V domains shown, human IgG1) VH: EVQLVESGGGLVQPGRSLRLSCVASGFIVENFAMHWVRQAPGKGLEWVSGITWNSASTGYVESVKGRFSISRDNGENSMFLEMNSLRPDDTALYYCVKATGSYWGFPMDVWGQGTTVTVSS VL: EIVLTQSPGTLSLSPGEGGTLSCRASQSVRSNYLAWYQRKPGQAPRLLIYATSNRATGIPDRFSGSGSGTDFTLTISRLEPEDFAVYFCQHYGDSPYTFGQGTKLEIKR				no binding		no binding	no binding	no binding

— patent US20240101645A1 (HENRY M JACKSON FOUNDATION FOR THE ADVANCEMENT OF MILITARY …, published 2024)
